# Test results: the nanobody polyreactivity screen of Harvey et al. (2022)
# Experiment: yeast display, Sf9 membrane polyspecificity reagent, FACS + sequencing; frameworks hold sequencing errors
# Outline: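 After 36–48 hours of galactose induction, yeast (Saccharomyces cerevisiae BJ5465) displaying a synthetic nanobody library were stained at 4 °C for 1 hour with 10% biotinylated, detergent-solubilized Sf9 membrane reagent. Streptavidin microbeads enriched the stained cells before FACS sorting into low and high (top ~1%) gates on anti-HA and streptavidin fluorescence. Each clone's polyreactivity label reflects its gate of origin.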
row,Sequence,polyreactivity (PSR sort gate)
1,QVQLVESGLGLVQAGGSLRLSCASSGSICSTYAMGLYRQAPGKERELVAAITTSGGRTYYADSVKGRFTISRDNAKNSVYLQMNSLKPEDTAVYFCNAVRGGRYGLDYWGQGTQVTVSS,high polyreactivity
2,QVQLVESGGGLVQAGGSLRLSCAASGSIFPANVMGWYRQAPGKERELVAVISSSGGRTFYADSVKGRFTISRDNAKNTVYLQMNSLKPEDTAVYYCAATIYDYNRGRKYYYWGQGNQVTVSS,high polyreactivity
3,QVQLVESGGGVVQAGGSLRLSCAASGITFRSYLMGWYRQAPGKEREFVAAITGSAGSTYYADSVKGRFTISRDNAKTTVYLQINSLKAEDTAVYYCAARVRYVNPKYYYLGQGTQVTVSS,high polyreactivity
4,QVQPVESGGGLVQAGGSLRLSCADSGSIIYYNAMGWYRQAPGKEREFVAAITSSGGSTYADSVKGRFTISRDNGKNTVYIQMNSMKPEDTAVYYCATVAHGLLSGSGYIYAYDYWGQGTQVTVSS,low polyreactivity
5,QVQLVESGGGLVQAGGSLRLSCAASGSIFTSYAMGWYRQAPGKERELVAAISRRGSRTYYADSVKGRFTISRDNANNTVYLQMNSLKPEETAVYDCAAKSGGQPGDSWGQGTQVTVSS,high polyreactivity
6,QVQLVESGGGLVQAGGSLRLSCAASGSIFDYYAMGWYRQAPGKERELVASINSSGTGTFYADSVKGRFTISRDNAKNTVYLQMNSLKPEDTAVYSCATRQAVGYSSGRGYGYWGQGTQVTVSS,low polyreactivity
7,QLQLVESGGGLVQAGGSLRLSCAASGSIFRFNAMGWYRQAPGKERELVAAISGDSGSTYYADSVKGRFTISRDTAKNTVYFQMNCLKPEDTAVYYCNARHGKIIFYLERYDYWGHGTQVTVSS,low polyreactivity
8,QVQLVESGGGLDQAGGSLRLSCAASGSTFDTYAMGGYRQAPGKERELVAAISVSGTSTSYADSVKGRFTISRDNAKNTVYLQMNILNPEDTAVYYCIATDFSRNPGYARPEYDYWGQGTQVTVSS,low polyreactivity
9,QVQLVESGGGLVQAGGSLRLSCAASGSIFYVYAMGGYRQAPGKERELVAAISRRGARTYYADSVKGRFTISRDNAKNTVYLQMNSLKPEDTAVYYCNADQYYTVGYSAEYEYWGQGTQVTVSS,low polyreactivity
10,QVQLVESGGGLVQAGGSLRLSCAASGRTFSAYAMGWSRQAPGKERELVAAISRSGGRTYYADSVKGRFTISRDNAKNTVYLQMNSLKPEDTAVYYCAAGSNIWGQGTQVTVSS,high polyreactivity
11,QVQLVESGGGLVQAGGSLRLSCAASGSTFVYYDMGWYRQAPGKERELVAAITNGGNTYYADSVKGRFTISRDNAKNTVYLQMNSLKPEDTAVYYCAKLYTDAIVWSAYDYWGQGTQVTVSS,low polyreactivity
12,QVQLVESGGGLVQAGGRLRLSCAASGRIFTPNPMGWYRQAPGKERELVAAITTSAGRTYYADSVKGRFSISRDNAKNTVYLQMNSLKPEDTAVYYCAARYFPIRGYSWGQGSQVTVSS,high polyreactivity
13,QVQLVESGGGLVQAGGSLRLSCAASGRTFTSYAMGWYRQAPGKERELVAAISQGGGRTYYADSVKGRFTISRDNAKNTVYLQMNSLKPEDTAVYYCNARSLYPWRWKKEYGHWGQGTQVTVSS,high polyreactivity
14,QVQLVESGGGLVQAGGSLRLSCAASGSIFGRYGMVCYRQAPGKERQLVAAITSGTGTNYADSVKGRFTISRDNALNTVYLQMNSLKPEDTAVYYCNALRLRGNYEYGYWGQGTQVTLSS,low polyreactivity
15,QVQLVESGGGLVQAGGSLRLICAGSGSNFSYYAMGWYRQAPGKERELVAAITWSGGTTSYADSVKGRFTISRDNAKNTVYLQMNSLKPEDSAVNYFARSIYVVSAQYDYWGQGTQVTVSS,low polyreactivity
16,QVQLVESGGGLVQAGGSLRLSCAASGSTFYYNAMGWYRQAPGKERELVASISRSGGSTYADSVKGRFTISRDNAKNTVYLQMNSLKPVDTAVYYCNADAYGTPEFTSYAVRYDYWGQGTQVTVSS,low polyreactivity
